Data as given in paper PMC6901440.

Molecular target: Bcl-2 recombinant protein, P10415
Assay: in vitro binding of Bcl-2 recombinant protein to immunoprecipitated Flag-GSDMD, western blot with band values printed under the Bcl-2 blot
Settings: chain shown with the change; incubated for one hour, then heavily washed; parent: 1

Bcl-2 recombinant protein, P10415, sequence (P10415 whole entry): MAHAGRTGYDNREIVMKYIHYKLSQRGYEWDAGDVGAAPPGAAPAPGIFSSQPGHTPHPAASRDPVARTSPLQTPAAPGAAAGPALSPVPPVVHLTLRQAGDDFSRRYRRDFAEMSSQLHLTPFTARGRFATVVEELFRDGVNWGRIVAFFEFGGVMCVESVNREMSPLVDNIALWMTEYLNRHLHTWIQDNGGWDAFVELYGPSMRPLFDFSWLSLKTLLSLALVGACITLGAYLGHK

B1: Flag-GSDMD full length, P57764 L150Q (protein)
chain: MGSAFERVVRRVVQELDHGGEFIPVTSLQSSTGFQPYCLVVRKPSSSWFWKPRYKCVNLSIKDILEPDAAEPDVQRGRSFHFYDAMDGQIQGSVELAAPGQAKIAGGAAVSDSSSTSMNVYSLSVDPNTWQTLLHERHLRQPEHKVLQQQRSRGDNVYVVTEVLQTQKEVEVTRTHKREGSGRFSLPGATCLQGEGQGHLSQKKTVTIPSGSTLAFRVAQLVIDSDLDVLLFPDKKQRTFQPPATGHKRSTSEGAWPQLPSGLSMMRCLHNFLTDGVPAEGAFTEDFQGLRAEVETISKELELLDRELCQLLLEGLEGVLRDQLALRALEEALEQGQSLGPVEPLDGPAGAVLECLVLSSGMLVPELAIPVVYLLGALTMLSETQHKLLAEALESQTLLGPLELVGSLLEQSAPWQERSTMSLPPGLLGNSWGEGAPAWVLLDECGLELGEDTPHVCWEPQAQGRMCALYASLALLSGLSQEPH
- ratio to parent: 0.45
